This note sets out measurements from PMC3896610.

Where two headings read alike, the source gives them in different places.

Assay [1] deals with IgG1-K409R-CD20 (human). Put plainly: analytical cation-exchange chromatography.
Assay [2] has as its target IgG1-K409R-CD20 (human). Put plainly: analytical cation-exchange chromatography. This is another data set of the same source.

B1: IgG1-F405L-EGFR (antibody, V domains shown)
VH: QVQLVESGGGVVQPGRSLRLSCAASGFTFSTYGMHWVRQAPGKGLEWVAVIWDDGSYKYYGDSVKGRFTISRDNSKNTLYLQMNSLRAEDTAVYYCARDGITMVRGVMKDYFDYWGQGTLVTVSS
VL: AIQLTQSPSSLSASVGDRVTITCRASQDISSALVWYQQKPGKAPKLLIYDASSLESGVPSRFSGSESGTDFTLTISSLQPEDFATYYCQQFNSYPLTFGGGTKVEIK
Consider B1, for which the figures for the % bsIgG1-EGFRxCD20 by CIEX with IgG1-K409R-CD20 (human) [1] and in the assay with IgG1-K409R-CD20 (human) [2] were 95% and 96.3%, respectively.
